Results published in the DeepSol protein solubility set.

Assay: soluble on expression in E. coli; label from the status in PepcDB or PDB records

Sequence | soluble on expression in E. coli
METRKAEGEVIVVGAGLAGLVAAAELADAGRRVLILDQEGEQNLGGQAHWSFGGLFFVDSPEQRRLGIRDSLDLARRDWETAAGFDRPEDHWPRKWAEAYLEFAAGEKREWLHRQGMRWFPAVGWAERGGAGAGLPGNSVPRFHITWGTGPGVLEPFVRRVREHQRAGRIEFRFRHRVRGLTLTAGRVTGVHGDVLEPSDVGRGETSSRVVTGDFELTAQAVLITSGGIGGNHELVRRYWPTERLGPAPEVMLSGVPRHVDGLLQQQVVAQGGSLINPDRMWHYTEGVRNWDPVWPQHGIRILPGPSSLWLDPSGRRLPFPHIPGASSYDTLRHITTHGYPHTWFLLNRAVIKREFGLSGSEQNPDLTGKDLRLTLRRASKHVPGPVQAFMDRGEDFVVRDNLRDLVRGMNELTGGELLDYATVEREVLDRDLQVHNVAGKDAQLAIVRGARAILSERLTRVAKPAPLLDPAQGPLIAVRLSVLTRKSLGGLETDLQGRVIGAGGQPLPDLYAAGEVAGFGGGGYHGYRALEGTFLGGCLFSGRAAGRAIAGAL | not soluble
MIRTDNLSDLASARDYWRTDKYISFVITFQFYLLLDTMSDSFNWPAGNNEARERLGEKFESLHLDSRISTSHAKPLSNADPVVVPIYHSSTYRFKTVDQFNEDNHGANFVYRRCGNPTTENVEVVINEIEGGAGSLLYNSGLAAISAVFLEFLSSGAHMIVMNPIYSGTSSFINETLARFGVEITSVDVEKEKDFAGAVEKAIRPNTKMIYFESIANPTMAVPDILGTIEVAKKYKILTCLDATFSSPYNIQPLKLGADISLHSCSKYIGGHTDVIAGVVTVSSYDNWKKLKLQQLTTGSSLSPYDAALLTRGLKTLGLRVDRISENAQKTAEFLESHPKVERVFYPGLPSHPQHQYAKQVMKQFAGMIAFDVGTAENAIKLVESLKLIIHAVSLGGTESLIEHPLSMSHGKHLLRYLDGPTVAPGLLRFSVGIENVEDIIGDLNDALEKL | not soluble
MPLFKRRDGSGPAPNATIREKYDFRDVLGTGAFSKVFLAESKSDAGQMYAVKCIDKKALKGKEESLENEIKVLRKLRHNNIVQLFDTYDEKQFVYLVMELVTGGELFDRIVAKGSYTEQDASNLIRQVLEAVGFMHDNGVVHRDLKPENLLYYNQDEDSKIMISDFGLSKTEDSGVMATACGTPGYVAPEVLQQKPYGKAVDVWSIGVIAYILLCGYPPFYDESDANLFAQIIKGEYEFDAPYWDQISDSAKDFITHLMCCDPEARFTCQDALSHPWISGNTAYTHDIHGTVAVHLKKSLAKRNWKKAYNAAAAIRQLQMLRLSSNSNRLQKQASQQQPEPPTPAFHA | soluble
MGFLKGKKGLIVGVANNKSIAYGIAQSCFNQGATLAFTYLNESLEKRVRPIAQELNSPYVYELDVSKEEHFKSLYNSVKKDLGSLDFIVHSVAFAPKEALEGSLLETSKSAFNTAMEISVYSLIELTNTLKPLLNNGASVLTLSYLGSTKYMAHYNVMGLAKAALESAVRYLAVDLGKHHIRVNALSAGPIRTLASSGIADFRMILKWNEINAPLRKNVSLEEVGNAGMYLLSSLSSGVSGEVHFVDAGYHVMGMGAVEEKDNKATLLWDLHKEQ | soluble
MEYAADGDTVFLESIENMEVTRLDSAIIRNGTFSFKGRQDSTVARYLSCMTATDVFSIPFFLENGHIEVKMKSGNESVTGTPTNDIYQEIRSKMAEIMNKMNEIYSDSTLTEELAEEKMDQMEREYTIAQKEAVKKNIANPVGVFLFKEQYFENSLAENQALFRQIPPKYLNDPVLMGMQKQMESQEKTDMNTPFT | not soluble
MSLEGDRGQDDVLRILVATDTHLGYKADDSERGGDSFETFQEILEIGRNLKVDFLLHGGDLFDENRPSRATLYRTFCLLRKFCFGDGAVSFEVLEGAAESRGRGEGFRFGLNYLDENINVCMPIFAMHGNHDDPGEQSHLSPLDLLEAAHLINYFGRCDATDEVTIKPILIKKGQTKVAIYGVGWIRDARLHRAFNNGKVRFLVPSASAGEDSVDDWFNIMVVHQNMYKGAFGGQPAKNCIHEQMLPDFLDLAIWGHEHDCHLDLRDAPQGTFRVLQPGSSIATSLVAGEALPKHVFLLEIRGENYRVTPQRLRTVRPLLFEDVALSDLLHSRPPLAPALSGVRTPQSRVSNSGAGRNLQTAQPAEDRDVWQLLTDAVEELLSRFAREEGHHHHHH | soluble
MGSDKIHHHHHHMISMKIQQILPADPAKAILIGRIWDPVSQGPRVVSVRGEDVFDLSPGVRTVAELMEYENPLEVVLQRTDAPRWDLAEIVEASQGTDRNRPHLLAPIDLQVVKACGVTFVESMIERVIEERCGGDFTRAAEVRKAVADVLGGSLDSVRPGSEQAREAKRILSAQGMWSQYLEVGLGPDPEVFTKAPVLSSVGYGSGVGIPSFSSWNNPEPELVLILNSAGDPLGATLGNDVNLRDVEGRSALLLGMAKDNNASCAIGPLIRLFHKDFTLESLRTEEITLTVEGTDGYRMEGRNSVARISRSFEELIKAAHGSHHQYPDGFALFTGTLFAPTQDRDTEGLGFTHKNGDIVTISSPQLGTLINQTQSTEETEPWTFGITALFRYLAQTGTGGAPSITGSPVSAAPGKSAGMKIGFRN | not soluble
MEKGYRLLERIELGEPKNCYEKVVSHKHLIESIHLHLADLLNTHSGNAMIDSEYGLPDFNDVLSNNTNLVRHIQKNITATIERFEPRLLNVEVHYREDHHNPLQLGFGIRGEVSHNGGKVPMSIDVYMGTD | not soluble
MSRSRSAAASSSQKPDDMDLMSPDGSASSPSAPNTPATNSGGFSSDRKKATHLRCERQRREAINSGYSDLKDLIPQTTTSLGCKTTNAAILFRACDFMSQLKTDISDADKQLAQLNAQAAALEMIASEYEQMASSVPDAGQSTIQVKMLQLLLDDCFTSFSSQVDFTTYATITRTLLSWVESLAPNAEPFKSTAGKMVTMPFTSP | not soluble
MGSDKIHHHHHHMRFMFLHPRLSLEGDPLGLMQLSASLKQRGHIVGLTLLTEDYIEAIRSFQPDMLGVSLMSSDAVMMHQVLNKVRMVFPDLFIIVGGPHPTFDPSCLMVLPVNAICVGEGDEALVEALEQYGREGHVEGIRNVGTVTTPVTLRPLVSDLDDLPFIDRDIVYAKNHIVRDFPLKTFAASRGCHFKCTYCFNHAYNAMYAGLGHVVRRRSVDHLIAEMRDVIARYPTSYIKISDDSFTYRVDSWLEEFAEKYPRLIGLPFYCLLRADVVTRDMVRLLREAGCRSVCMSIEAGAETVRRDVLNRRVSNEKIIESFDLFNEAGIAIYTNSMLAMPRATLADDIATLDLNIRCRPTLGHFTIMAPFPGTRIHDMCEKDGILPERCGGDGDIPTSTGELSKLTTYTDEEKNIQKNIVLLGPLVIRFPVLRGVFLRCLAKLPSNNILFKCIYTVTKNLLFKRIVPVRMSPLLMLRIAIAQVKAARTQVG | not soluble
MSLTYYDDIRKVQDLHLPWEILTDINILIVGASGLIGRALVDTLMQLPDKTFHLYAGVRDLVYAQSCFMRYKDDESFTLIQCDVTALIPFDIDFHYIIHAASYAGPAAFHNDPVGVMKANILGVDNLFSYGEQHNLRRLLYVSSGEVYGEGNGIPFREEDSGSLDWASLRACYPAAKRTAETLCIAYAAQFQIETVIARPCHIYGPFYTSKDDRAYAQFIRNVLAGENIILRSSGLQQRSWCYVVDCVFALLYVLLKGKTKNAYNIADVRSNVSIREFAEMIALKSEREVIFDLPDNTGKNKPIISQAIFNTEKINKIGWFPQWKLEEGVSHTLNTLISVDGTYEGHITITTDPNSSSVDKLAAALEHHHHHH | soluble
MQTSPEREAVIIRSGNSKILNTRSLMSDSRPEVLTEEDVLRLFPVLGGERRLTRRLLKALKITDINAVHARHINLRGAEFAHAALTDPAINVCYRLHGAEHLEEMRKGGAFTTVSNHPFGSLDGIMLIDIIGSVRPDYSVLVNGFLSMISCLRDSFIPVAPLKGMAGGLDSKHNVSGVKEVLNRLQNGQPVGFFPAGGISVYKGNRNRVMDSEWQASCAKMILVSQVPVYPIFFSGRNSWYFHFLGWLSWAIRTPRIPAELFNKRGHIFDVYIGDPIPPETIARFEKNPRELALFLYDRTYRLAPGHKKNK | not soluble
